Ends that are not written are not given here.
Target: NoVLPs (Norovirus-like particles) (so in the source)
Test: SPR (BIAcore), NoVLPs immobilized, dendrimer injected at 8-240 µM, steady-state fit of the equilibrium average response

## RHFQTHTVPLSL (also: octovalent MAP dendrimer, eight copies on branching lysine core) […8 (the octovalent dendrimer of SEQ ID NO: 1)]
  Kd: 117 µM
